From patent US20180044401A1 (KANEKA, published 2018)

Assays:
[1] = target: T1, IgG-Fab prepared from anti-TNFα monoclonal antibody (Remicade); experiment: SPR Biacore 3000, Fab immobilized on CM5, peptide at 25, 100, 400 nM, 1:1 model
T1 construct: Chimeric antibody; also called Anti-TNFα antibody - Fab; IgG-Fab of anti-TNFα monoclonal antibody
Method: (§1) The affinity of the peptide obtained in the above-described Example 1(2) for the Fc region and Fab region of anti-RSV monoclonal antibody was evaluated using a biosensor Biacore3000 (manufactured by GE Healthcare Bioscience) utilizing surface plasmon resonance. In the present Example, the IgG-Fc or IgG-Fab obtained in the above-described Example 2(1) was immobilized on a sensor tip, and the peptide was flown on the tip to detect the interaction between the two. The IgG-Fab or IgG-Fc was immobilized on a sensor tip CM5 by amine coupling method using N-hydroxysuccinimide (NHS) and N-ethyl-N′-(3-dimethylaminopropyl)carbodiimide hydrochloride (EDC), and ethanolamine was used for blocking. All of the sensor tip and reagents for immobilization was manufactured by GE Healthcare Bioscience. The IgG-Fab solution was diluted to about 10 times using a buffer for immobilization (10 mM AcOH—AcONa, pH 4.5), and the IgG-Fab was immobilized on the sensor tip in accordance with the protocol attached to the Biacore 3000. In addition, a reference cell as negative control was also prepared by activating another flow cell on the tip with EDC/NHS and then immobilizing ethanolamine only. […] Each peptide solution was added to the sensor tip in a flow rate of 40 μL/min for 1 minute. Bonding response curves at the time of addition (association phase, 1 minute) and after the addition (dissociation phase, 1 minute) were sequentially obtained at a measurement temperature of 25° C. After each measurement, about 20 mM NaOH was added for wash.
(§2) Also, the affinity of the peptide according to the present invention (SEQ ID NO: 2) for IgG-Fab prepared from anti-EGFR monoclonal antibody (“Erbitux” sold by Bristol-Myers Squibb) and anti-TNFα monoclonal antibody (“Remicade” sold by Mitsubishi Tanabe Pharma Corporation) was evaluated.

[2] = target: T2, IgG-Fab prepared from anti-EGFR monoclonal antibody (Erbitux); experiment: as above
T2 construct: Chimeric antibody; also called Anti-EGFR antibody - Fab
Method: as §1, §2

[3] = target: T3, IgG-Fc derived from anti-RSV monoclonal antibody (Palivizumab) (human, UniProt P01857-1 108-330 = IgG part, limits assumed); experiment: SPR Biacore 3000, Fc immobilized on CM5, peptide flown, 25° C., pH 7.4, 1:1 model
T3 construct: domain: Fc region; Immobilized on a CM5 sensor tip by amine coupling; also called Anti-RSV antibody - Fc; Synagis Fc fragment
Method: (§3) The affinity of the peptide obtained in the above-described Example 1(2) for the Fc region and Fab region of anti-RSV monoclonal antibody was evaluated using a biosensor Biacore3000 (manufactured by GE Healthcare Bioscience) utilizing surface plasmon resonance. In the present Example, the IgG-Fc or IgG-Fab obtained in the above-described Example 2(1) was immobilized on a sensor tip, and the peptide was flown on the tip to detect the interaction between the two. The IgG-Fab or IgG-Fc was immobilized on a sensor tip CM5 by amine coupling method using N-hydroxysuccinimide (NHS) and N-ethyl-N′-(3-dimethylaminopropyl)carbodiimide hydrochloride (EDC), and ethanolamine was used for blocking. All of the sensor tip and reagents for immobilization was manufactured by GE Healthcare Bioscience. The IgG-Fab solution was diluted to about 10 times using a buffer for immobilization (10 mM AcOH—AcONa, pH 4.5), and the IgG-Fab was immobilized on the sensor tip in accordance with the protocol attached to the Biacore 3000. In addition, a reference cell as negative control was also prepared by activating another flow cell on the tip with EDC/NHS and then immobilizing ethanolamine only. Peptide solutions having concentrations of 16 nM, 64 nM or 256 nM were prepared using a running buffer (20 mM NaH₂PO₄—Na₂HPO₄, 150 mM NaCl, 0.005% P-20, pH 7.4). Each peptide solution was added to the sensor tip in a flow rate of 40 μL/min for 1 minute. Bonding response curves at the time of addition (association phase, 1 minute) and after the addition (dissociation phase, 1 minute) were sequentially obtained at a measurement temperature of 25° C. After each measurement, about 20 mM NaOH was added for wash.

[4] = target: T4, IgG-Fab derived from anti-RSV monoclonal antibody (Palivizumab); experiment: SPR Biacore 3000, Fab immobilized on CM5, peptide flown, 25° C., pH 7.4, 1:1 model
T4 construct: Humanized monoclonal IgG fragmented with papain; Immobilized on a CM5 sensor tip; also called Anti-RSV antibody - Fab; Synagis Fab fragment
Method: as §3

B1: immunoglobulin G-binding peptide having the amino acid sequence of SEQ ID NO: 2 (designed binder)
chain: GPLGSTTYKLILNGKTLTGYTTAIAADAATAEIVLKQFANDNGIDGEWTYDDATKTFTVTE
notes: Expressed as a GST fusion in E. coli; GST was cleaved off with PreScission Protease before the assay; also called SpG mutant
- Ka [1]: 4e+07 M⁻¹
- koff [1]: 0.01 s⁻¹
- kon [1]: 413000 M⁻¹ s⁻¹
- Ka [2]: 6.5e+07 M⁻¹
- koff [2]: 0.039 s⁻¹
- kon [2]: 252000 M⁻¹ s⁻¹
- Ka [3]: 3.5e+06 M⁻¹
- koff [3]: 0.028 s⁻¹
- kon [3]: 97000 M⁻¹ s⁻¹
- Ka [4]: 2e+07 M⁻¹
- koff [4]: 0.003 s⁻¹
- kon [4]: 66000 M⁻¹ s⁻¹
